Molecular target: recombinant Hsp90α (human) (UniProt P07900)

B1: Tsc1-D-His6 (domain or fragment)
chain: DGCSDSMVGHNEEASGHNGETKTPRPSSARGSSGSRGGGGSSSSSSELSTPEKPPHQRAGPFSSRWETTMGEASASIPTTVGSLPSSKSFLGMKARELFRNKSESQCDEDGMTSSLSESLKTELGKDLGVEAKIPLNLDGPHPSPPTPDSVGQLHIMDYNETHHEHS
  inhibition of Hsp90α ATPase activity in vitro (PiPer Phosphate Assay) by 100 nM Tsc1-D: 72%

Source: publication PMC5730846
